# Reference: article PMC7863765
# Experiments:
# [1] = target: polyphosphorylated full-length SARS-CoV-2 nucleocapsid protein pN.1-419 (SARS-CoV-2) (UniProt P0DTC9); assay: SEC
# [2] = target: polyphosphorylated full-length SARS-CoV-2 nucleocapsid protein pN.1-419 (SARS-CoV-2) (UniProt P0DTC9); assay: SEC-MALS
substance,measurement,setting,value
untagged full-length human 14-3-3γ (from UniProt P61981 1-247) (natural protein),Kd,[1],1500 nM
same,stoichiometry N (14-3-3γ chains per pN.1-419 chain (2:2)),[1],1
same,stoichiometry N (14-3-3γ chains per pN.1-419 chain (2:2)),[2],1
